In this assay the test system is PPO-deficient BT3 E. coli (ΔPPO). Briefly: PPO-inhibiting herbicide tolerance test of PPO variants in E. coli (growth on herbicide-containing LB agar). The conditions noted are these: CyPPO19 variants in BT3 (ΔPPO) E. coli; LB agar with 0 to 2,000 μM herbicide, 37° C., dark, 16-20 hours. It is filed as cell-based. In outline: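 Tolerance was scored against wild-type enzyme: '−' for equal growth, one '+' per 10-fold gain, up to '+++++'. ΔPPO BT3 cells carrying variant plasmids, spotted as a 10-fold dilution series from OD600=0.5, grew 16-20 h at 37° C. in the dark on ampicillin LB agar containing 0 to 2,000 μM herbicide.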

B1: CyPPO19 V305L + F360M: variant of CyPPO19 PPO protein (SEQ ID NO: 1) (protein)
chain: MSEVDVAIVGGGLSGLSLAWRLQQSAPQYSVVLLEASDRLGGNITTQTAEGFVWELGPNSFAPTPALLQLIAEVGLQSELIRGDRHLPRYIYWRGQLYPLQPTRPLALATSNLLSPWGKVRAALGALGFVPPYLGSGDESVNSFFRRHLGQEVAERLVAPFVSGVYAGDPQQLSAAAAFRRIAQLEKLGGGLIAGALHLRRQQAPKPKPPTSVQMRPGELGSFKEGLAALPRAIAQQLKAPIHLQTPVQEITPDPKGGYLLRSGEQTWRARSVVLATPAYQTAELVAPFQPAIARVLATIPYPTLACVVLAYPAGLGRSVRPGFGVLIPRSQGIRTLGTIWSSCLFPQRTPAGWQVFTSMIGGATDPDLASLSEEAIVQQVQQDLNRLLDLPAAKARLLGMKVWRRAIPQYMVGYPEQWQQVTHALSQTPGLFLCSNYAEGVALGDRVEHGNRTAAAVAAYLSGGQP
modifications: Synthetic_PPO of Thermosynechococcus elongatus PKUAC-SCTE542 (comprising GenBank No. CP032152.1)
In the case of B1, the “tolerance level relative to wild type, Carfentrazone” value is given as “+ (‘+’ per each 10-fold resistance)”; the “tolerance level relative to wild type, Flumioxazin” value is given as “++++ (‘+’ per each 10-fold resistance)”; the “tolerance level relative to wild type, Fomesafen” value was “+++ (‘+’ per each 10-fold resistance)”; the “tolerance level relative to wild type, Oxyfluorfen” value is “++ (‘+’ per each 10-fold resistance)”. The “tolerance level relative to wild type, Saflufenacil” value is given as “++++ (‘+’ per each 10-fold resistance)”; the “tolerance level relative to wild type, Sulfentrazone” value is “+ (‘+’ per each 10-fold resistance)”; the “tolerance level relative to wild type, Tiafenacil” value was “+++ (‘+’ per each 10-fold resistance)”.

B2: CyPPO19 V305M + F360T: variant of CyPPO19 PPO protein (SEQ ID NO: 1) (protein)
chain: MSEVDVAIVGGGLSGLSLAWRLQQSAPQYSVVLLEASDRLGGNITTQTAEGFVWELGPNSFAPTPALLQLIAEVGLQSELIRGDRHLPRYIYWRGQLYPLQPTRPLALATSNLLSPWGKVRAALGALGFVPPYLGSGDESVNSFFRRHLGQEVAERLVAPFVSGVYAGDPQQLSAAAAFRRIAQLEKLGGGLIAGALHLRRQQAPKPKPPTSVQMRPGELGSFKEGLAALPRAIAQQLKAPIHLQTPVQEITPDPKGGYLLRSGEQTWRARSVVLATPAYQTAELVAPFQPAIARVLATIPYPTMACVVLAYPAGLGRSVRPGFGVLIPRSQGIRTLGTIWSSCLFPQRTPAGWQVFTSTIGGATDPDLASLSEEAIVQQVQQDLNRLLDLPAAKARLLGMKVWRRAIPQYMVGYPEQWQQVTHALSQTPGLFLCSNYAEGVALGDRVEHGNRTAAAVAAYLSGGQP
modifications: Synthetic_PPO of Thermosynechococcus elongatus PKUAC-SCTE542 (comprising GenBank No. CP032152.1)
B2: the “tolerance level relative to wild type, Carfentrazone” value is listed as “+ (‘+’ per each 10-fold resistance)”; the “tolerance level relative to wild type, Flumioxazin” value is “++ (‘+’ per each 10-fold resistance)”; the “tolerance level relative to wild type, Fomesafen” value was “++ (‘+’ per each 10-fold resistance)”; the “tolerance level relative to wild type, Oxyfluorfen” value was “+ (‘+’ per each 10-fold resistance)”. For the same molecule, the “tolerance level relative to wild type, Saflufenacil” value was “++ (‘+’ per each 10-fold resistance)”; the “tolerance level relative to wild type, Sulfentrazone” value was “+ (‘+’ per each 10-fold resistance)”; the “tolerance level relative to wild type, Tiafenacil” value is given as “++ (‘+’ per each 10-fold resistance)”.

B3: CyPPO19 V305L + F360L: variant of CyPPO19 PPO protein (SEQ ID NO: 1) (protein)
chain: MSEVDVAIVGGGLSGLSLAWRLQQSAPQYSVVLLEASDRLGGNITTQTAEGFVWELGPNSFAPTPALLQLIAEVGLQSELIRGDRHLPRYIYWRGQLYPLQPTRPLALATSNLLSPWGKVRAALGALGFVPPYLGSGDESVNSFFRRHLGQEVAERLVAPFVSGVYAGDPQQLSAAAAFRRIAQLEKLGGGLIAGALHLRRQQAPKPKPPTSVQMRPGELGSFKEGLAALPRAIAQQLKAPIHLQTPVQEITPDPKGGYLLRSGEQTWRARSVVLATPAYQTAELVAPFQPAIARVLATIPYPTLACVVLAYPAGLGRSVRPGFGVLIPRSQGIRTLGTIWSSCLFPQRTPAGWQVFTSLIGGATDPDLASLSEEAIVQQVQQDLNRLLDLPAAKARLLGMKVWRRAIPQYMVGYPEQWQQVTHALSQTPGLFLCSNYAEGVALGDRVEHGNRTAAAVAAYLSGGQP
modifications: Synthetic_PPO of Thermosynechococcus elongatus PKUAC-SCTE542 (comprising GenBank No. CP032152.1)
On to B3, for which the “tolerance level relative to wild type, Carfentrazone” value is “+ (‘+’ per each 10-fold resistance)”; the “tolerance level relative to wild type, Flumioxazin” value is recorded as “++++ (‘+’ per each 10-fold resistance)”; the “tolerance level relative to wild type, Fomesafen” value is recorded as “+++ (‘+’ per each 10-fold resistance)”; the “tolerance level relative to wild type, Oxyfluorfen” value is “++ (‘+’ per each 10-fold resistance)”. The “tolerance level relative to wild type, Saflufenacil” value was “++++ (‘+’ per each 10-fold resistance)”; the “tolerance level relative to wild type, Sulfentrazone” value is “++ (‘+’ per each 10-fold resistance)”; the “tolerance level relative to wild type, Tiafenacil” value was “++++ (‘+’ per each 10-fold resistance)”.

B4: CyPPO19 V305M + F360V: variant of CyPPO19 PPO protein (SEQ ID NO: 1) (protein)
chain: MSEVDVAIVGGGLSGLSLAWRLQQSAPQYSVVLLEASDRLGGNITTQTAEGFVWELGPNSFAPTPALLQLIAEVGLQSELIRGDRHLPRYIYWRGQLYPLQPTRPLALATSNLLSPWGKVRAALGALGFVPPYLGSGDESVNSFFRRHLGQEVAERLVAPFVSGVYAGDPQQLSAAAAFRRIAQLEKLGGGLIAGALHLRRQQAPKPKPPTSVQMRPGELGSFKEGLAALPRAIAQQLKAPIHLQTPVQEITPDPKGGYLLRSGEQTWRARSVVLATPAYQTAELVAPFQPAIARVLATIPYPTMACVVLAYPAGLGRSVRPGFGVLIPRSQGIRTLGTIWSSCLFPQRTPAGWQVFTSVIGGATDPDLASLSEEAIVQQVQQDLNRLLDLPAAKARLLGMKVWRRAIPQYMVGYPEQWQQVTHALSQTPGLFLCSNYAEGVALGDRVEHGNRTAAAVAAYLSGGQP
modifications: Synthetic_PPO of Thermosynechococcus elongatus PKUAC-SCTE542 (comprising GenBank No. CP032152.1)
Consider B4, for which the “tolerance level relative to wild type, Carfentrazone” value is given as “+ (‘+’ per each 10-fold resistance)”; the “tolerance level relative to wild type, Flumioxazin” value is listed as “++++ (‘+’ per each 10-fold resistance)”; the “tolerance level relative to wild type, Fomesafen” value is given as “+ (‘+’ per each 10-fold resistance)”; the “tolerance level relative to wild type, Oxyfluorfen” value is listed as “++ (‘+’ per each 10-fold resistance)”. Moreover, the “tolerance level relative to wild type, Saflufenacil” value is recorded as “++++ (‘+’ per each 10-fold resistance)”; the “tolerance level relative to wild type, Sulfentrazone” value is reported as “+ (‘+’ per each 10-fold resistance)”; the “tolerance level relative to wild type, Tiafenacil” value is listed as “++++ (‘+’ per each 10-fold resistance)”.

B5: CyPPO19 V305M + F360M: variant of CyPPO19 PPO protein (SEQ ID NO: 1) (protein)
chain: MSEVDVAIVGGGLSGLSLAWRLQQSAPQYSVVLLEASDRLGGNITTQTAEGFVWELGPNSFAPTPALLQLIAEVGLQSELIRGDRHLPRYIYWRGQLYPLQPTRPLALATSNLLSPWGKVRAALGALGFVPPYLGSGDESVNSFFRRHLGQEVAERLVAPFVSGVYAGDPQQLSAAAAFRRIAQLEKLGGGLIAGALHLRRQQAPKPKPPTSVQMRPGELGSFKEGLAALPRAIAQQLKAPIHLQTPVQEITPDPKGGYLLRSGEQTWRARSVVLATPAYQTAELVAPFQPAIARVLATIPYPTMACVVLAYPAGLGRSVRPGFGVLIPRSQGIRTLGTIWSSCLFPQRTPAGWQVFTSMIGGATDPDLASLSEEAIVQQVQQDLNRLLDLPAAKARLLGMKVWRRAIPQYMVGYPEQWQQVTHALSQTPGLFLCSNYAEGVALGDRVEHGNRTAAAVAAYLSGGQP
modifications: Synthetic_PPO of Thermosynechococcus elongatus PKUAC-SCTE542 (comprising GenBank No. CP032152.1)
For the molecule B5, the “tolerance level relative to wild type, Carfentrazone” value is reported as “+ (‘+’ per each 10-fold resistance)”; the “tolerance level relative to wild type, Flumioxazin” value is given as “++++ (‘+’ per each 10-fold resistance)”; the “tolerance level relative to wild type, Fomesafen” value is “+++ (‘+’ per each 10-fold resistance)”; the “tolerance level relative to wild type, Oxyfluorfen” value is listed as “++ (‘+’ per each 10-fold resistance)”. The “tolerance level relative to wild type, Saflufenacil” value is reported as “++++ (‘+’ per each 10-fold resistance)”; the “tolerance level relative to wild type, Sulfentrazone” value was “++ (‘+’ per each 10-fold resistance)”; the “tolerance level relative to wild type, Tiafenacil” value is on record as “++++ (‘+’ per each 10-fold resistance)”.

B6: CyPPO19 V305M + F360L: variant of CyPPO19 PPO protein (SEQ ID NO: 1) (protein)
chain: MSEVDVAIVGGGLSGLSLAWRLQQSAPQYSVVLLEASDRLGGNITTQTAEGFVWELGPNSFAPTPALLQLIAEVGLQSELIRGDRHLPRYIYWRGQLYPLQPTRPLALATSNLLSPWGKVRAALGALGFVPPYLGSGDESVNSFFRRHLGQEVAERLVAPFVSGVYAGDPQQLSAAAAFRRIAQLEKLGGGLIAGALHLRRQQAPKPKPPTSVQMRPGELGSFKEGLAALPRAIAQQLKAPIHLQTPVQEITPDPKGGYLLRSGEQTWRARSVVLATPAYQTAELVAPFQPAIARVLATIPYPTMACVVLAYPAGLGRSVRPGFGVLIPRSQGIRTLGTIWSSCLFPQRTPAGWQVFTSLIGGATDPDLASLSEEAIVQQVQQDLNRLLDLPAAKARLLGMKVWRRAIPQYMVGYPEQWQQVTHALSQTPGLFLCSNYAEGVALGDRVEHGNRTAAAVAAYLSGGQP
modifications: Synthetic_PPO of Thermosynechococcus elongatus PKUAC-SCTE542 (comprising GenBank No. CP032152.1)
As for B6, the “tolerance level relative to wild type, Carfentrazone” value is listed as “+ (‘+’ per each 10-fold resistance)”; the “tolerance level relative to wild type, Flumioxazin” value is on record as “++++ (‘+’ per each 10-fold resistance)”; the “tolerance level relative to wild type, Fomesafen” value is “++ (‘+’ per each 10-fold resistance)”; the “tolerance level relative to wild type, Oxyfluorfen” value is reported as “++ (‘+’ per each 10-fold resistance)”. Also, the “tolerance level relative to wild type, Saflufenacil” value is “++++ (‘+’ per each 10-fold resistance)”; the “tolerance level relative to wild type, Sulfentrazone” value is reported as “++ (‘+’ per each 10-fold resistance)”; the “tolerance level relative to wild type, Tiafenacil” value was “++++ (‘+’ per each 10-fold resistance)”.

(Values after US12698507B2, “Methods and compositions for conferring and/or enhancing herbicide tolerance using protoporphyrinogen IX oxidase of various cyanobacteria or variant thereof” (FarmHannong Co., Ltd., priority 2019, dated 2026).)
